In the RNAGym collection of RNA variant scans (doi:10.1073/pnas.2313332121):

B1: TPR t1 (parent)
chain: GACCAAUCUGCCCUCAGAGCUCGAGAACAUCUUCGGAUGCAGAGGAGGCAGGCUUCGGUGGCGCGAUAGCGCCAACGUCCUCAACCUCCAAUGCAUCCCACCACAUGAUGAUGCCUGAAGAGCCUUGGUUUUUUG

Variants of: B1
Test: polymerase ribozyme fitness, log enrichment relative to wild type (log ratio); higher = more active; in vitro selection for triplet polymerase activity
Summary of the method: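 For each subunit of a heterodimeric triplet polymerase ribozyme, a mutant library was built by PCR and transcribed, then taken through a single in vitro selection round in triplicate. Selection involved annealing to a biotinylated primer, the partner subunit and triplets, incubation frozen at −7 °C, gel excision of extended constructs, capture on streptavidin beads and RT-PCR. Genotypes were retained after Illumina sequencing of inputs and outputs only with ≥10 input reads and ≥1 read in each output. Fitness is defined as the logarithm of a genotype's enrichment relative to wild-type enrichment, using inverse-variance-weighted averages across replicates, with the logarithm taken to base 2.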

Variant | polymerase ribozyme fitness (log ratio)
GCCCAAUCUGCCCUCAGAGCUCGAGAACAUCUUCGGAUGCAGAGGAGGCAGGCUUCCGUGGCGCGAUAGCACCAACGUCCUCAACCUCCAAGGCAUCCCACCACAUGAUGAUGCCUGAAAAGCCUUGGUUUUUUG [A2C G57C G71A U92G G120A] | -6.04
GGGCAAUCUGCCCUCAGAGCUCGAGAACAUGUUCGGAUGCAGUGGAGGCAGGCUUCGGUUGCGCGAUAGCGCCAACGUCCUCAACCUCCAAUGUAUCCCACCACAUGAUGAUGGCUGAAGAGCCUUGGUUUUUUG [A2G C3G C31G A43U G60U C94U C114G] | -7.19
GCCCAAUCUGCCCUCAGAGCUCGAGAACAUCUUCGGAUGCAGAGGAGGCAGGCUUCGGUGGCGCGAUAGCGCCAACGUCCUAAACCUCCAAUGCAUCCCACCACAUGAUGAUGCCUGAAGAGCCUUGGUUUUUUG [A2C C82A] | -2.04
GCCCAAUCUGCCCUCAGAGCUCGAGAACAUCUUCGGAUGCAGAGGAGGCAGGCUUCGGUGGCGCGAUAGCGCUAACGUCCUCAACCUCCAAUGCAUCCCACCACAUGAUGAUGCCUGAAGAGCCUUGGUUUUUUG [A2C C73U] | -1.65
GGCCCAUCUGCCCUCAGAGCUCGAGAACAUCUUCGGAUGCAGAGGAGGCAGGCUUCGGUAGCGCGAUAGCGCCUACGUCCUCAACUUCCAAUGCAUCCCACCACAUGAUGAUGCCUGAAGAGCCUUGGUUUUUUU [A2G A5C G60A A74U C86U G135U] | -1.91
GCCCAAUCGGCCCUCAGAGAUCGAGAACAUCUUCGGAUGCAGAGGAGGCAGGCUUCGGUGGCGCGAUAGCACCAACGUCCUCAACCUCCAAUGCAUCCCACCACAUGAUGAUGCCUGAAGUGCCUUGGUUUUUUG [A2C U9G C20A G71A A121U] | -3.49
GGCCGAUCUGCCCUCAGAGAUCGAGAACAUCUUCGGAUGCAGAGGCGGCAGGCUUCGGUGGCGCGAUAGCGCCAACGUCCUCAACCUCCAAUGCAUCCCACCACAUGAUGAGGCCUGAAGAUCCUUGGCUUUUUG [A2G A5G C20A A46C U112G G122U U129C] | -5.3
GCCCAAUCUGCCCUCAGAGCUCGAGAACAUCUUCGGAUGUAGAGGAGGCAGGCUUCGGUGGCGCGAUAGCGCCAACGUCCUCAACCUCCAAUGCAUCCCACCACAUGAUGAUGCCUGAAGAGCCUUGGUUUUUUG [A2C C40U] | -2.06
GCCCAAUCUGCCCUCAGAGCUCGAGAACAUCUUCGGAUGCAGAGGAGGCAGGCUUCGGUGGCGCGAUAGCUCCAACGUCCUCAACCUCCAAUGCAUCCCACCACAUGAUGAUGCCUGAAGAGCCUUGGUUUUUUG [A2C G71U] | -2.08
GCCCAAUCUGCCCUCAGAGCUCGAGAACAUCUUCGGAUGCAGAGGAGGCAGGCUUCGGUGGCGCGAUAGCACCAACGUCCUCAACCUCCAAUGCAUCCCACCACAUGAUGAUGCCUGAAGAGCCUUGGUUUUUUG [A2C G71A] | -2.36
GCCCAAUCUGCCCUCAGAGCUCGAGAACAUCUUCGGAUGCAGAGGAGGCAGGCUUCGGUGGCGCGAUAGAGCCAACGUCCUCAACCUCCAAUGCAUCCCACCACAUGAUGAUGCCCGAAGAGCCUCGGUUUUAUG [A2C C70A U116C U126C U133A] | -5.29
GCCCAAUCUGCCCUCAGAGCUCGAGAACAUCUUCGGAUGCAGAGGAGGCAGGCUUCGGUGACGCGAUAGCGCCAACGUCCUGAACCUCCAAUGCAUCCCACCACAUGAUGAUGCCUGAAGAGCCUUGGUUUUUUG [A2C G61A C82G] | -2.65
GCCCAAUCUGCCCUCAGAGCUCGAGAACAUCUUCGGAUGCAAAGGGGGCAGGCUUCGGUGGCGCGAUAUCGCCAACGUCCUCAACCUCCAAUGCAUCCCACCACAUGAUGAUGCGUGAAGAGCCUUGGUUUUUUG [A2C G42A A46G G69U C115G] | -4.92
GCCCAAUCUGCCCUCAGAGCUCGAGAACAUCUUCGGAUGCAGAGGAGGCAGGCUUCGGUGGCUCGAUAGCGCCAACGUCCUCAACCUCCAAUGCAUCCCACCACAUGAUGAUGCCUGAAGAGCUUUGGUUUUUUG [A2C G63U C124U] | -1.65
GCCCAAUCUGCCCUCAGAGCUCGAGAACAUCUUCGGAUGCAGAGGAGGCAGGCUUCGGUGGCGCGAUAACGCCAACGUCCUCAACCUCCAAUGCAUCCCACCACAUGAUGAUGACUGAAGAGCCUUGGUUUUUUG [A2C G69A C114A] | -4.75
GGCCAAUCUGCCCUCAGAGCUCGAGAACAUCUUCGGCUGCAGAGGAGGCAGGCUUCGGUGGCGCGAUAGCGCCAACGUCCUCAACCUCCAAUGCAUCCCACCACAUGAUGGUGCCUGAAGAGCCUUGGUUUUUUG [A2G A37C A111G] | -1.49
GCCCAAUCUGCCCUCAGAGCUCGAGAACAUCUUCGGAGGCAGAGGAGGCAGGCUUCGGUGGCGCGAUAGCGCCAACGUGCUCAACCUCCAAUGCAUCCCACCACAUGAUGAUGCCUGAAGCGCCUUGGUUUUUUG [A2C U38G C79G A121C] | -2.95
GGCCGAGCUGCCCUCAGAGCGCGAGAACAUCUUCGGAUGCAGCGGAGGCAGGCUUCGGUGGCGCGAUAUCGCCAACGUCCUCAACCUACAAUGCAUCCCAUCACAUGAUGAUGCCUGAAGAGCCUUGGAUUUUUG [A2G A5G U7G U21G A43C G69U C88A C101U U129A] | -3.72
GCCCAAUCUGCCCUCAGAGCUCGAGAACAUCUUCGGAUGCAGAGGAGGCAGGCUUCGGUGGCGCGAUAGCGCCAACUUCCUCAACCUCCAAUGCAUCCCACCACAUGAUGAUGCCUGAAGAGCCUUGGUUUUUUG [A2C G77U] | -2.28
GCCCAAUCUGCCCUCAGAGCUCGAGAACAUCUUCGGAUGCAGAGGAGGCAGGCUUCGGUGGCGCGAUAGCGCCAACGUCCUCAACCUCCAAUGCAUCCCAACACAAGAUGAUGCUUGAGGAGCCUUGGUUUUUUG [A2C C101A U106A C115U A119G] | 0.154
GCCCAAUCUGCCCUCAGAGCUCGAGAACAUCUUCGGAUGCAGAGGAGGCAGGCUUCGGUGGCGCGAUAGCGACAACGUCCUCAACCUCCAAUGCAUCCCACCACAUGAUGAUGCGUGAAGAGCCUUGGUUUUUUG [A2C C72A C115G] | -3.29

Variant | polymerase ribozyme fitness (log ratio)
GCCCAAUCUGCCCUCAGAGCUCGAGAACAUCUUCGGAUGCAGAGGAGGCAGGCUUCGGUGGCGCGAUAGCACCAACGUCCUCAACCUCCAAUGCAUCCCACCACAUGAUGAUGCAUGAAGAGUCUUGGUUUUUUG [A2C G71A C115A C123U] | -2.71
GGCCAAUCUGCCCUCAGAGCUCGAGAACAUCUUCGGAUGCAGAGGCGGCAGGCUUCGGUGGCGCGAUAGCGCCAACGUCCUCAACCUCCAAUGCAUCCCACCACAUGAUGAUGCCUGAAGAGCCUUGGUUUUUUG [A2G A46C] | -0.998
GGCCAAUCUGCCCUCAGAGCUCGAGAACAUCUUCGGAUGCAGGGGAGGCAGGCUUCGGUGGCGCGAUAGCGCCAACGUCCUCAACCUCCAAUGCAUCCCACCACAUGAUGAUGCCUGAAGAGCCUUGGUUUUUUG [A2G A43G] | -2.05
GCCCAAUCUGCCCUCAGAGCUCGAGAACAUCUUCGGAUGCAGAGGAGGCAGGCUUCGGUGGCGCGAUAGCUCCAACGUCCUCAACCUCCAAUACAUCCCACCACAUGAAGAUGCCUGAACAGCCUUGGUUUUUUG [A2C G71U G93A U109A G120C] | -6.66
GCCCAAUCUGCCCUCAGAGCUCGAGAACAUCUUCGGAUGCAGAGGAGGCAGGCUUCGGUGACGCGAUAGCGCCAACGUCCUCAACCUCCAAUGCAUCCCACCACAUGAUGAUGCCUGAAGAGCCUUGGUUUUUUG [A2C G61A] | -1.72
GCCCAAUCUGCCCUCAGAGCUCGAGAAUAUCUUCGGAUGCAGAGGAGGCAGGCUUCGGUGGCGCGAUAGCACCAACGACCUCAACCUCCGAUGCAUCCCACCACAUGAUGAUGCCUGAAGAGCCUUGGUUUUUUG [A2C C28U G71A U78A A90G] | -5.83
GCCCAAUCUGCCCUCAGAGCUCGAGAACAUCUUCGGAUGCAGAGGAGGCAGGCUUCGGUGGCACGAUAGCGCCAACGUCCUCAACCUCCAAUGCAUCCCACCACAUGAUGAUGCCUGAAGAGCCUUGGUUUUUUG [A2C G63A] | -2.37
GGCCAAUCUGCCCUCAGAGCUCGAGAACAUCUUCGGAUGCAGAGGAGGCAGGCUUCGGUGGCGCGAUAGCGCCAACGUCCUCAACCUCCAUUGCAUCCCACCACAUGAUGAUGCCUGAAGAGCCUUGGUUUUUUG [A2G A91U] | -1.93
GCCCAAUCUGCCCUCAGAGCUCGAGAACAUCUUCGGAUGCAGAGGAGGCAGGCUUCGGUGGCGCGAUAGCGCCAACGUCCUCAACCUCCAAUGCAUCCCACCACAUGAUCAUGCCUGAAGAGCCUUGGUUUUUUG [A2C G110C] | -6.21
GGCCAAUCUGCCCUCAGAGCUCGAGAACAUCUUCGGAUGCAGAGGAGGCCGGCUUCGGUGGCGCGAUAGCGCCAGCGUCCUCAACCUCCAAUGCAUCCCACCACAUGAUGAUUCCUGAAGAGCCUUGGUUUUUUG [A2G A50C A75G G113U] | -3.77
GCCCAAUCUGCCCUCAGAGCUCGAGAACAUCUUCGGAUGCAGAGGAGGCAGGCUUCGGUGGCUCGAUAGCGCCAACGUCCUCAACCUCCAAUGCAUCCCACCACAUGAUGAUGCCUGAAGAGCCUUGGAUUUUUG [A2C G63U U129A] | -2.77
GCCCAAUCUGCCGUCAGAGCUCGAGAACAUCUUCGGAUGCAGAGGAGGCAGGCUUCGGUGGCGCGAUAGCGCCAACGUCCUCAACCUCCAAUUCAUCCCACCACAUGAUGAUGCCUGAAUAGCCUUGGUUUUUUG [A2C C13G G93U G120U] | -2.23
GCCCAAUCUGCCCUCAGAGCUCGAGAACAUCUUCGGAUGCAGAGGAGGCAGGCUUCGGUGGCGCGAUAGCGCCAACGUCCUCAACCGCCAAUGCAUCCCACCACAUGAUGAUGCCUGAAGAGCCUUGGUUUUUUG [A2C U87G] | -1.65
GGCCAAUCUGCCCUCAGCGCUCGAGAACAUCUUCGGAUGCAGAGGAGGCAGGCUUCGGUGGCGCGAUAGCGCCAACGUCCUCAACCUCCAAUGCAUCCCACCACAUGAUGAUGCAUGAAGAGUCUUGGUUUUUUG [A2G A18C C115A C123U] | -1.44
GCCCAAUCUGCCCUCAGAGCUCGAGAACAUCUUCGGAUGCAGAGGAGGCAGGCUUCGGUGGCGCGAUAGCGCCAACGUCCUCAACCUCCAAUGCAUCCCACCACAUGAUGAUGCCUGAAGAGCCUUGUUUUUUUG [A2C G128U] | -2.55
GGCCAAUCUGCCCUCAGGCCUCGAGAACAUCUUCGGAUGCAGAGGAGGCAGGCUUCGGUGGCGCGAUAGCGCCAACGUCCUCCACCUCCAAAGCAUCCCACCACAUGAUGAUGACUGAAGAGCCUUGCUUUUUUG [A2G A18G G19C A83C U92A C114A G128C] | -3.26
GCCCAAUCUGCCCUCAGAGCUCGAGAACAUCUUCGGAUGCAGAGGAGGCAGGCUUCGGUGACGCGAUAGCGCCAACGUCCUCAACCUCCAAUGUAUCCCACCACAUGAUGAUGCCUGAAGAGCCUUGGUUUUUUG [A2C G61A C94U] | -0.931
GCCCAAUCUGCCCUCAGAGCUCGAGAACAUCUUCGGAUGCAGAGGAGGAAGGCUUCGGUGGCGCGAUAGCGCCAACGUCCUCAACCAACAAUGCAUCCCACCACAUGAUGAUGCCUGAAGAGCCUUGGUUUUUUG [A2C C49A U87A C88A] | -3.11
GCCCAAUCUGCCCUCAGAGCUCGAGAACAUCUUCGGAUGCAGAGGAGGCAGGCUUCGGUGGCGCGAUAGCGCUAAGGUCCUCAACCUCCAAUGCAUCCCACCACAUGAUGAGGCCUGAAGAGCCUUGGUUUUUUG [A2C C73U C76G U112G] | -1.38
GCCCAAUCUGCCCUCAGAGCUCGAGAACAUCUUCGGAUGCAGAGGAGGCAGGCUUGGGUGGCGCGAUAGCGCCAACGUCCUCAACCUCCAAUGCAUCCCACCACAUGAUGAUGCCUGAAGAGCCUUGGUUUUUUG [A2C C56G] | -1.9
GCCCAAUCUGCCCUCAGAGCUCGAGAACAUCUUCGGAUGCAGAGGAGGCAGGCUUCGGUGGCCCGAUAGCGCCAACGUCCUCAACCUCCAAUGCAUCCCACCACAUGAUGAUGCCUGAAGAGCCUUGGUAUUUUG [A2C G63C U130A] | -2.69
